Laboratory results as given in patent EP4541822A2 (Tsinghua University, dated 2025).

B1: recombinant protein (SIM)3-CNB (other)
chain: MKHHHHHHHENLYFQGAMKVDVIDLTIESSSDEEEDPPAKRGGSGGSGGSGGSMMKVDVIDLTIESSSDEEEDPPAKRGGSGGSGGSGGSMMKVDVIDLTIESSSDEEEDPPAKRGGSGGSGGSGGSMGEVQLMESGGGLVQAGGSLRLSCAASGRTFNNYAMGWFRRAPKGEREFVAAITRSGVRSGVSAIYGDSVKDRFTISRDNAKNTLYLQMNSLKPEDTAVYTCAASAIGSGALRRFEYDYSGQGTQVTVSS
notes: The entry also holds a 7xHis tag and TEV site; Red-labelled for imaging; also called (SIM)3-CNB (Red)
B2: recombinant protein (SIM)6-CNB (other)
chain: MKHHHHHHHENLYFQGAMSSKVDVIDLTIESSSDEEEDPPAKRGGSGGSGGSGGSKVDVIDLTIESSSDEEEDPPAKRGGSGGSGGSGGSKVDVIDLTIESSSDEEEDPPAKRGAMKGGSGGSGGSGGSMSSKVDVIDLTIESSSDEEEDPPAKRGGSVGSGGSGGSKVDVIDLTIESSSDEEEDPPAKRGGSGGSGGRGGSKVDVIDLTIESSSDEEEDPPAKRGAMRCWGGSGGSGGSGGSMGEVQLMESGGGLVQAGGSLRLSCAASGRTFNNYAMGWFRRAPKGEREFVAAITRSGVRSGVSAIYGDSVKDRFTISRDNAKNTLYLQMNSLKPEDTAVYTCAASAIGSGALRRFEYDYSGQGTQVTVSS
notes: The entry also holds a 7xHis tag and TEV site; Labelled with Alexa594 for imaging; also called (SIM)6-CNB (Red)
B3: recombinant protein (PRMH)5-CNB (other)
chain: MKHHHHHHHENLYFQGHMKGGSWGGSKKTPPPVPPRTTSKGGSGGSGGSGGSKKTPPPVPPRTTSKGGSGGSGGSGGSKKTPPPVPPRTTSKGGSGGSGGSGGSKKTPPPVPPRTTSKGGSGGSGGSGGSKKTPPPVPPRTTSKGGSGSKNLYFQGGSGGSGGSGGSMEVQLMESGGGLVQAGGSLRLSCAASGRTFNNYAMGWFRRAPKGEREFVAAITRSGVRSGVSAIYGDSVKDRFTISRDNAKNTLYLQMNSLKPEDTAVYTCAASAIGSGALRRFEYDYSGQGTQVTVSS
notes: The entry also holds a 7xHis tag and TEV site; Labelled with Alexa594; also called (PRMH)5-CNB (Red)
B4: recombinant protein (SIM)6-R4L (other)
chain: MKHHHHHHHENLYFQGAMSSKVDVIDLTIESSSDEEEDPPAKRGGSGGSGGSGGSKVDVIDLTIESSSDEEEDPPAKRGGSGGSGGSGGSKVDVIDLTIESSSDEEEDPPAKRGAMKGGSGGSGGSGGSMSSKVDVIDLTIESSSDEEEDPPAKRGGSVGSGGSGGSKVDVIDLTIESSSDEEEDPPAKRGGSGGSGGRGGSKVDVIDLTIESSSDEEEDPPAKRGAMRCWGGSGGSGGSGGSMGMCYRKCRGGRRWCYQKCGGSGGSGGSGGS
notes: also called (SIM)6-R4L (Red)
B5: recombinant protein (SH3)5-DNB (other)
chain: MKHHHHHHHENLYFQGHMDLNMPAYVKFNYMAEREDELSLIKGTKVIVMEKSSDGWWRGSYNGQVGWFPSNYVTEEGDSPLASGAGGSEGGGSEGGTSGATDLNMPAYVKFNYMAEREDELSLIKGTKVIVMEKSSDGWWRGSYNGQVGWFPSNYVTEEGDSPLASGAGGSEGGGSEGGTSGATHMDLNMPAYVKFNYMAEREDELSLIKGTKVIVMEKSSDGWWRGSYNGQVGWFPSNYVTEEGDSPLASGAGGSEGGGSEGGTSGATDLNMPAYVKFNYMAEREDELSLIKGTKVIVMEKSSDGWWRGSYNGQVGWFPSNYVTEEGDSPLASGAGGSEGGGSEGGTSGATDLNMPAYVKFNYMAEREDELSLIKGTKVIVMEKSSDGWWRGSYNGQVGWFPSNYVTEEGDSPLGGSGGSGGSGGSMEVQLLESGGGLVQPGGSLRLSCAASGTFDKINNMGWYRQAPGKQRDLVAQITPGGITDYADSVKGRFTISRDNSKNTLYLQMNSLRPEDTAVYYCNAEILKRAYIDVYVNYWGQGTLVTVSS

Key:
[1] = molecular target: T1, recombinant protein (SUM)3-DNB; test: fluorescence imaging of SJSA-1 cells (Figs. 5A, 5B)
T1 construct: The entry also holds a 7xHis tag and TEV site; Green-labelled for imaging; unlabelled in the apoptosis assays; also called (SUM)3-DNB (Green)

[2] = molecular target: T2, CXC motif chemokine receptor 4 (CXCR4) (human, UniProt P61073 1-352); test: fluorescence imaging of SJSA-1 cells with anti-CXCR4 immunostaining (Figs. 5A, 5B)
T2 construct: whole, on cells; Endogenous receptor on human tumour cell lines; also called chemokine receptor CXCR4
T2 sequence (P61073 whole entry): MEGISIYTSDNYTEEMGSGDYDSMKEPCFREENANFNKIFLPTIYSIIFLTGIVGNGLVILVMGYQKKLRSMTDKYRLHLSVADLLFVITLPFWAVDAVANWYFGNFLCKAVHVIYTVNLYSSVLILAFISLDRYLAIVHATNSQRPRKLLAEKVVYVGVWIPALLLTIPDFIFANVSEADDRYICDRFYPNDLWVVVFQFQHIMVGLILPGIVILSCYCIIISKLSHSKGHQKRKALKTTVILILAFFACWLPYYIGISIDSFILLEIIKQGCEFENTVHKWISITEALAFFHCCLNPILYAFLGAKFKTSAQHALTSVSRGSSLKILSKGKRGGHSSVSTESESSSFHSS

[3] = molecular target: T3, recombinant protein (SUM)5-DNB; test: fluorescence imaging of SJSA-1 cells, 100 nM (Figs. 3A, 3B)
T3 construct: The entry also holds a 7xHis tag and TEV site; Labelled with Alexa647 for imaging; also called (SUM)5-DNB (Green)

[4] = molecular target: T2, CXC motif chemokine receptor 4 (CXCR4); test: fluorescence imaging of SJSA-1 cells with anti-CXCR4 immunostaining (Figs. 3A, 3B)
[5] = molecular target: B5; test: confocal imaging of SJSA-1 cells, 100 nM each (Fig. 9A)
[6] = molecular target: T4, multivalent domain (SUM)5; test: confocal imaging of SJSA-1 cells, (SIM)6-R4L (Red) plus (SUM)5 (Green), 100 nM each (Fig. 2A)
T4 construct: Labelled with Alexa647 for imaging; also called (SUM)5 (Green)
T4 sequence (chain, as listed by the source): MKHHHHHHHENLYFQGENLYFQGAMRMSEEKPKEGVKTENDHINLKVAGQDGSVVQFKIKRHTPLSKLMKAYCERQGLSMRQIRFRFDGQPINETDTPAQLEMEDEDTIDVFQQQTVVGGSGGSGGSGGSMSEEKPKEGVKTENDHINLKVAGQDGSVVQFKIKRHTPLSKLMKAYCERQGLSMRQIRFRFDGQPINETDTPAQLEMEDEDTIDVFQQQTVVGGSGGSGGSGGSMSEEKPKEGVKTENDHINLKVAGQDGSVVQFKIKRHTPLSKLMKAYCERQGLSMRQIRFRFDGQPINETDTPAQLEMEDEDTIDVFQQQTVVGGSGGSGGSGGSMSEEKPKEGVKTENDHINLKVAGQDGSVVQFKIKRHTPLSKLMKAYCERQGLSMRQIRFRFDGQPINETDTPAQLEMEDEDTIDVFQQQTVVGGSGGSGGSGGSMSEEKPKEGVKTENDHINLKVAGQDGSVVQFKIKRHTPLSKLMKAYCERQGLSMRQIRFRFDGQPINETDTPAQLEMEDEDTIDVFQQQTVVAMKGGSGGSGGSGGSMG

[7] = molecular target: T2, CXC motif chemokine receptor 4 (CXCR4); test: confocal imaging of SJSA-1 cells; membrane puncta with the ligand fusions, none with the multivalent domains alone
death receptor 5 (DR5) = death receptor 5 (DR5) (human, UniProt O14763 56-440); test: cell-based or functional assay

## B1
[1]
  binding result: binds
[2]
  binding result: binds

## B2
[3]
  binding result: binds
[4]
  binding result: binds

## B3
[5]
  binding result: binds

## B4
[6]
  binding result: binds
[7]
  binding result: binds

## B5
Death receptor 5 (DR5)
  apoptotic ratio of SJSA-1 cells, Annexin V-FITC/PI flow cytometry, 4 h; (SH3)5-DNB (Green) added together with (PRMH)5-CNB (Red) at 100 nM: ~58.4%
